Measurements reported in patent US20230125550A1 (ARCELLX, published 2023).
Positions count from the first letter of the chain named.

T1: recombinant human CD123-Fc (human, UniProt P26951 19-305)
T1 construct: not shown: Fc part of CD123-Fc
T1 sequence: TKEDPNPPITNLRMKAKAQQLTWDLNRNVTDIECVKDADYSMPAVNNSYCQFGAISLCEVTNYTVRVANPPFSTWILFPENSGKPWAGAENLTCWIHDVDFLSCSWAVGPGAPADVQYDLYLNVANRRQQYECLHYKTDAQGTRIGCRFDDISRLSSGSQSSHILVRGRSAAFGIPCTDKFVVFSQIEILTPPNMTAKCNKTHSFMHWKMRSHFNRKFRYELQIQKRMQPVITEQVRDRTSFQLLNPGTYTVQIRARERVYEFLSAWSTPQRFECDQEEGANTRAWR

B1: SEQ ID NO: 492 (designed binder)
chain: MGSWVLFKEELAYIKFELEALGGSEAELALFENVIAIFESNLQNYKGKGNPEVEALRKEAAAIRDELQAYRHN
notes: D domain, on phage
B2: SEQ ID NO: 510 (designed binder)
chain: MGSWFEFKDYLADIKWDLEALGGSEAELAIFEHDIAYFEHNLQQYKGKGNPEVEALRKEAAAIRDELQAYRHN
notes: D domain, on phage
B3: SEQ ID NO: 511 (designed binder)
chain: B2 chain with F5V, E6R, Y10F, W16M, I30D, H33Y, D34H, Y37E, Q44E
notes: D domain, on phage
B4: SEQ ID NO: 504 (designed binder)
chain: MGSWFMFKEELADIKDWLEALGGSEAELASFESYIAWFEQDLQWYKGKGNPEVEALRKEAAAIRDELQAYRHN
notes: D domain, on phage
B5: SEQ ID NO: 490 (designed binder)
chain: MGSWYDFKYDLAEIKMDLEALGGSEAELAQFEFDIAFFEEELQDYKGKGNPEVEALRKEAAAIRDELQAYRHN
notes: D domain, on phage
B6: SEQ ID NO: 471 (designed binder)
chain: MGSWFWFKEDLAFIKEDLEALGGSEAELAWFEDGIAFFEWDLQDYKGKGNPEVEALRKEAAAIRDELQAYRHN
notes: D domain, on phage
B7: SEQ ID NO: 496 (designed binder)
chain: B4 chain with F5Y, D16W, W17Y, S30W, S33D, Y34D, W37G, Q40W, W44A
notes: D domain, on phage
B8: SEQ ID NO: 474 (designed binder)
chain: B6 chain with F5N, F13I, E16M, D33H, G34N, F37G, W40F, D41E, D44G
notes: D domain, on phage
B9: SEQ ID NO: 489 (designed binder)
chain: B6 chain with F5Y, W6E, E9F, F13E, D17Q, W30L, G34D, W40Y, D44N
notes: D domain, on phage
B10: SEQ ID NO: 517 (designed binder)
chain: B6 chain with F5T, W6Y, E9N, F13G, W30Q, D33F, G34E, F37E, D41L
notes: D domain, on phage
B11: SEQ ID NO: 505 (designed binder)
chain: B6 chain with W6M, E9Q, D10E, F13W, W30D, D33W, G34D, F37E, D44Y
notes: D domain, on phage
B12: SEQ ID NO: 516 (designed binder)
chain: B6 chain with F5T, E9D, D10N, F13W, D33L, G34E, F37S, W40T, D41A
notes: D domain, on phage
B13: SEQ ID NO: 473 (designed binder)
chain: B6 chain with F5H, F13I, E16Q, W30T, D33Q, G34W, F37E, D44E
notes: D domain, on phage
B14: SEQ ID NO: 472 (designed binder)
chain: B6 chain with F5Q, F13E, E16H, G34F, F37Q, W40F, D44W
notes: D domain, on phage
B15: SEQ ID NO: 497 (designed binder)
chain: MGSWYYFKDELADIKWDLEALGGSEAELAWFEMLIAQFELDLQWYKGKGNPEVEALRKEAAAIRDELQAYRHN
notes: D domain, on phage
B16: SEQ ID NO: 499 (designed binder)
chain: B15 chain with Y6Q, D9H, E10D, W16Y, D17G, M33D, L34D, Q37D, W44Y
notes: D domain, on phage
B17: SEQ ID NO: 498 (designed binder)
chain: B15 chain with Y5M, E10T, D17Y, W30F, M33D, L34W, Q37E, L40D, W44V
notes: D domain, on phage
B18: SEQ ID NO: 509 (designed binder)
chain: B15 chain with Y6Q, D9T, D13W, W16D, M33W, L34V, Q37D, L40D, W44F
notes: D domain, on phage
B19: SEQ ID NO: 500 (designed binder)
chain: B15 chain with Y6V, E10D, W16Y, D17M, M33W, L34E, Q37N, L40F, W44Y
notes: D domain, on phage
B20: SEQ ID NO: 506 (designed binder)
chain: MGSWQIFKGELAYIKQYLEALGGSEAELAFFEFDIAEFEEDLQYYKGKGNPEVEALRKEAAAIRDELQAYRHN
notes: D domain, on phage
B21: SEQ ID NO: 507 (designed binder)
chain: B20 chain with Q5D, I6F, G9E, Y13E, Q16H, D34W, E37D, E40Q, Y44E
notes: D domain, on phage
B22: SEQ ID NO: 493 (designed binder)
chain: MGSWQDFKEDLAWIKYELEALGGSEAELAFFEYDIAIFENNLQHYKGKGNPEVEALRKEAAAIRDELQAYRHN
notes: D domain, on phage
B23: SEQ ID NO: 501 (designed binder)
chain: MGSWNFFKYDLADIMAYLEALGGSEAELAFFEDEIANFEHDLQKYKGKGNPEVEALRKEAAAIRDELQAYRHN
notes: D domain, on phage
B24: SEQ ID NO: 479 (designed binder)
chain: MGSWWEFKEDLAEIKWFLEALGGSEAELAWFEHDIAKFEFELQYYKGKGNPEVEALRKEAAAIRDELQAYRHN
notes: D domain, on phage
B25: SEQ ID NO: 488 (designed binder)
chain: B24 chain with W5A, E6W, W16V, W30E, H33V, D34S, K37D, F40Y, Y44D
notes: D domain, on phage
B26: SEQ ID NO: 481 (designed binder)
chain: B24 chain with W5N, E9D, E13M, W16M, F17T, K37E, F40D, E41D, Y44W
notes: D domain, on phage
B27: SEQ ID NO: 482 (designed binder)
chain: B24 chain with W5T, E6F, E9D, F17M, H33S, K37Y, F40D, Y44W
notes: D domain, on phage
B28: SEQ ID NO: 485 (designed binder)
chain: MGSWQYFKDDLAEIKMVLEALGGSEAELAWFEADIAMFEDDLQIYKGKGNPEVEALRKEAAAIRDELQAYRHN
notes: D domain, on phage
B29: SEQ ID NO: 483 (designed binder)
chain: B28 chain with Q5S, Y6D, V17I, W30Y, A33N, M37W, I44E
notes: D domain, on phage
B30: SEQ ID NO: 484 (designed binder)
chain: B28 chain with Q5S, Y6M, M16A, V17S, A33D, M37W, I44H
notes: D domain, on phage
B31: SEQ ID NO: 480 (designed binder)
chain: B24 chain with W5E, E6W, E9S, E13S, F17E, K37E, F40E, E41D, Y44W
notes: D domain, on phage
B32: SEQ ID NO: 514 (designed binder)
chain: MGSWIWFKDWLADIKDLLEALGGSEAELAEFEYDIALFEDQLQAYKGKGNPEVEALRKEAAAIRDELQAYRHN
notes: D domain, on phage
B33: SEQ ID NO: 486 (designed binder)
chain: MGSWSFFKDDLAEIKYFLEALGGSEAELAMFEQTIAEFEYDLQDYKGKGNPEVEALRKEAAAIRDELQAYRHN
notes: D domain, on phage
B34: SEQ ID NO: 487 (designed binder)
chain: B33 chain with S5M, F6E, D9E, D10E, F17I, M30W, T34S, E37D
notes: D domain, on phage
B35: SEQ ID NO: 508 (designed binder)
chain: MGSWFNFKEELAVIKFQLEALGGSEAELAFFEWVIADFEDDLQEYKGKGNPEVEALRKEAAAIRDELQAYRHN
notes: D domain, on phage
B36: SEQ ID NO: 495 (designed binder)
chain: MGSWYDFKEDLADIKWMLEALGGSEAELAEFENVIAYFENDLQEYKGKGNPEVEALRKEAAAIRDELQAYRHN
notes: D domain, on phage
B37: SEQ ID NO: 494 (designed binder)
chain: MGSWDHFKNDLAWIKKHLEALGGSEAELAEFEAVIAYFELYLQGYKGKGNPEVEALRKEAAAIRDELQAYRHN
notes: D domain, on phage
B38: SEQ ID NO: 515 (designed binder)
chain: MGSWGWFKHELAFIKADLEALGGSEAELAWFEEEIAEFEYELQFYKGKGNPEVEALRKEAAAIRDELQAYRHN
notes: D domain, on phage
B39: SEQ ID NO: 512 (designed binder)
chain: MGSWWLFKEQLALIKYNLEALGGSEAELADFESWIAEFEHQLQEYKGKGNPEVEALRKEAAAIRDELQAYRHN
notes: D domain, on phage
B40: SEQ ID NO: 502 (designed binder)
chain: MGSWHWFKIVLADIKDGLEALGGSEAELAYFETTIADFEMDLQHYKGKGNPEVEALRKEAAAIRDELQAYRHN
notes: D domain, on phage
B41: SEQ ID NO: 503 (designed binder)
chain: B40 chain with Q43H
notes: D domain, on phage
B42: SEQ ID NO: 513 (designed binder)
chain: MGSWHVFKTELADIKFYLEALGGSEAELAMFELWIAEFEHELQDYKGKGNPEVEALRKEAAAIRDELQAYRHN
notes: D domain, on phage
B43: SEQ ID NO: 475 (designed binder)
chain: MGSWSWFKEDLAEIKMELEALGGSEAELAYFEWYIAEFEFQLQHYKGKGNPEVEALRKEAAAIRDELQAYRHN
notes: D domain, on phage
B44: SEQ ID NO: 478 (designed binder)
chain: B43 chain with E13S, M16A, E17V, Y30F, W33S, Y34D, F40Q, Q41E, H44Y
notes: D domain, on phage
B45: SEQ ID NO: 491 (designed binder)
chain: B43 chain with S5Y, W6I, M16E, W33E, Y34E, E37L, F40M, Q41E, H44W
notes: D domain, on phage
B46: SEQ ID NO: 476 (designed binder)
chain: B43 chain with E9Q, E13D, M16I, E17Q, Y30W, Y34D, Q41E, H44D
notes: D domain, on phage
B47: SEQ ID NO: 477 (designed binder)
chain: B43 chain with E13D, M16F, Y30W, W33L, Y34D, E37D, F40Q, Q41A, H44Q
notes: D domain, on phage

Molecular target: T1, recombinant human CD123-Fc
Experiment: phage ELISA, captured CD123-Fc
How it was run: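 Phage from BCMA panning colonies were rescued with VCSM13 helper phage and diluted 5× in blocking buffer. Plates coated with anti-human IgG1-Fc captured 5 nM target-Fc or IgG1-Fc, and binding was detected with HRP anti-M13. Ratio = A450 target/A450 IgG1-Fc, averaged over the clone's wells.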

Row | Binder | ELISA_avg [ratio A450 target/IgG1-Fc]
1 | B1 | 3.5
2 | B2 | 3.8
3 | B3 | 5.8
4 | B4 | 5.7
5 | B5 | 3.2
6 | B6 | 13.7
7 | B7 | 7
8 | B8 | 3.1
9 | B9 | 4.6
10 | B10 | 3.6
11 | B11 | 7.2
12 | B12 | 6.9
13 | B13 | 5.5
14 | B14 | 3.8
15 | B15 | 4
16 | B16 | 4.7
17 | B17 | 3.1
18 | B18 | 6.6
19 | B19 | 3.8
20 | B20 | 4.7
21 | B21 | 3.7
22 | B22 | 3.2
23 | B23 | 4.4
24 | B24 | 5.1

Row | Binder | ELISA_avg [ratio A450 target/IgG1-Fc]
25 | B25 | 3.5
26 | B26 | 3.5
27 | B27 | 3.3
28 | B28 | 3.6
29 | B29 | 4.7
30 | B30 | 5.2
31 | B31 | 5.7
32 | B32 | 7.3
33 | B33 | 10.1
34 | B34 | 5
35 | B35 | 6.1
36 | B36 | 8
37 | B37 | 3.3
38 | B38 | 3.3
39 | B39 | 4.1
40 | B40 | 4.3
41 | B41 | 3.5
42 | B42 | 5.4
43 | B43 | 4.8
44 | B44 | 6.9
45 | B45 | 11.1
46 | B46 | 4
47 | B47 | 6.8
